The source of these data is patent publication US20150266963A1 (ARGEN X B V, published 2015).

In general, EC50 refers to the concentration giving half of the maximal effect. Broadly, the IC50 is the concentration needed to halve the response being measured. What is called EC50 (read off the curve) is the concentration needed to bring the measured effect to its halfway point.

Experiment [1] addresses T1, recombinant human CD70 (Flag-TNC-CD70) (human, UniProt P32970 39-193).
T1 construct: extracellular domain; Captured by anti-Flag mAb in ELISA; as 'recombinant human CD70' immobilised on Biacore CM5 chips; TNC is for trimerisation; also called recombinant CD70; human recombinant CD70; not shown: Flag tag and TNC trimerisation domain
T1 sequence (looked up): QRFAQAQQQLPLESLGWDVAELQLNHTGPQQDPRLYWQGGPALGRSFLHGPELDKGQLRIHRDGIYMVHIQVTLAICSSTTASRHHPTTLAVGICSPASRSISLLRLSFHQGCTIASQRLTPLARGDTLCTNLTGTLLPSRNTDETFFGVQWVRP
As to the kind of experiment: ELISA; Flag-TNC-CD70 captured by anti-Flag mAb; anti-human-Fc-HRP. Here is the method: A Maxisorb (Nunc) microtiter plate was coated with 3.5 μg/ml mouse M2 anti-Flag mAb (Sigma Aldrich, F3165) and the different chimeras were captured. A dilution series of the CD70 mAbs to be tested was applied starting at a concentration of 10 μg/ml and making 3-fold dilutions. After 2 hours, binding was detected using anti-human-Fc-HRP at a 16000-fold dilution. Staining was done with ABTS and OD at 405 nm was measured. As a positive control, CD27-Fc was applied which is able to bind to both human and mouse CD70 with good affinity as well as to the chimeric human-mouse CD70 variants.
(In general: In an ELISA, binding on a coated surface is turned into a signal by an enzyme label.)

The target of experiment [2] is T2, human CD70 expressed on the surface of cells (human, UniProt P32970 1-193).
T2 construct: whole, on cells; also called cell surface expressed CD70; CD70 on cells
T2 sequence (looked up): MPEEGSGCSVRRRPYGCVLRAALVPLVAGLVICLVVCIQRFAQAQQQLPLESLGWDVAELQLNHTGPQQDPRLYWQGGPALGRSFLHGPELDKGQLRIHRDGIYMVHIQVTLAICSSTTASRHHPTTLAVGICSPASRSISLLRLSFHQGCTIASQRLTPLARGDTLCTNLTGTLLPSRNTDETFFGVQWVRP
As to the kind of experiment: FACS MFI at 37 C, L428 cells; reference SGN70. On the procedure: (§1) Several cancer cell lines were tested by FACS analysis for binding of ARGX-110 and SGN70 (described in US2010/0129362) at saturating mAb concentrations (at least 2 μg/ml). This was either done at 4° C. (1 hour incubation of cells with mAbs) or at 37° C. (15 minutes incubation of cells with mAbs). Binding was detected using anti-hIgG1-Fc-FITC (AF006, Binding Site) or anti-hIgG1-Fc-PE antibody (eBioscience, 12-4998). Fluorescence was measured using a flow cytometer.

In experiment [3] the target is T1, recombinant human CD70 (Flag-TNC-CD70). As to the kind of experiment: blocking ELISA; Flag-TNC-CD70 captured by anti-FLAG M2; competitor CD27-Fc 6.5 nM. Here is the method: (§2) In this assay, a microtiter plate (Nunc Maxisorb) was first coated with 100 μl anti-FLAG M2 monoclonal antibody (Sigma Aldrich, F3165) at 1250-fold dilution in PBS (to achieve a final concentration of approximately 3.5 μg/ml) overnight at 4° C. The plate was washed once with PBS-Tween and incubated at RT for 2 hours with 300 μl PBS-1% casein. The plate was washed a further three times with PBS-Tween. 100 μl of 5 ng/ml (80 pM) Flag-TNC-CD70 (The Journal of Immunology, 2009, 183: 1851-1861) diluted in PBS-0.1% casein was added to the plate and incubated at RT for 1 hour while shaking. The plate was washed five times with PBS-Tween. The CD70 mAb to be tested was added to the plate; various concentrations were achieved by diluting the stock antibody solution in PBS-0.1% casein. Immediately thereafter, 50 μl of 1 μg/ml (final concentration 6.5 nM) recombinant human CD27 Fc chimera (R&D systems 382-CD, MW=46.5 kDa) was added, and incubated at RT for 1 hour while shaking. The plate was washed five times with PBS Tween. 100 μl of biotinylated anti-CD27 (eBioscience 13-0271), diluted 500-fold in PBS-0.1% casein, was added, and the plate incubated at RT for a further hour, while shaking. The plate was washed five times with PBS Tween. […] 100 μl TMB was added to the plate and the OD at 620 nm was measured. […]

The target of experiment [4] is T2, human CD70 expressed on the surface of …. As to the kind of experiment: FACS MFI at 37 C, Caki-1 cells; reference SGN70. On the procedure:
as §1

The target in experiment [5] is T3, cynomolgus monkey CD70 on HSC-F cells (cynomolgus monkey, UniProt A0A2K5WTU9 1-190).
T3 construct: whole, on cells; also called cynomolgus CD70
T3 sequence: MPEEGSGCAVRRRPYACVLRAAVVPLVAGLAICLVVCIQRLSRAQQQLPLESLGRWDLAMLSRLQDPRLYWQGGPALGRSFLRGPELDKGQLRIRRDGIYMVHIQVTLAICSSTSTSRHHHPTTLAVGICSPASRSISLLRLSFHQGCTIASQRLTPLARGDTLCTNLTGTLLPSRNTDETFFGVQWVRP
As to the kind of experiment: flow cytometry on cynomolgus HSC-F cells, goat anti human IgG1 FITC [panel cynomolgus monkey]. Background: A flow cytometer gives signals particle by particle.

The target of experiment [6] is T2, human CD70 expressed on the surface of …. As to the kind of experiment: FACS MFI at 37 C, A549 cells; reference SGN70. Here is the method:
as §1

Experiment [7] concerns the target T1, recombinant human CD70 (Flag-TNC-CD70). As to the kind of experiment: blocking ELISA; competitor CD27-Fc; references SGN70 and MDX1411. On the procedure: as §2
For experiment [8], the target named is T2, human CD70 expressed on the surface of …. Put plainly: FACS MFI at 37 C, U87MG cells; reference SGN70. On the procedure: as §1
Experiment [9] has the same target. Put plainly: FACS MFI at 37 C, PANC-1 cells; reference SGN70. Here is the method:
as §1

For experiment [10] the target is unchanged. Put plainly: FACS MFI at 37 C, Granta 519 cells; reference SGN70. Here is the method: as §1

B1: ARGX-110 (non-fucosylated 41D12 human IgG1) (antibody, V domains shown)
VH: EVQLVESGGGLVQPGGSLRLSCAASGFTFSVYYMNWVRQAPGKGLEWVSDINNEGGTTYYADSVKGRFTISRDNSKNSLYLQMNSLRAEDTAVYYCARDAGYSNHVPIFDSWGQGTLVTVSS
VL: QAVVTQEPSLTVSPGGTVTLTCGLKSGSVTSDNFPTWYQQTPGQAPRLLIYNTNTRHSGVPDRFSGSILGNKAALTITGAQADDEAEYFCALFISNPSVEFGGGTQLTVLG
notes: also called 41D12 (ARGX-110)
B1: the EC50 in experiment [1] turned out to be 0.022 µg/mL. Further, the “Signal in FACS of ARGX-110/signal in FACS of SGN70” value in experiment [2] stood at 1.4 ratio; in [4] it was 1.9 ratio; in experiment [6], 3.8 ratio; in experiment [8], 2 ratio; in [9] it was 2.9 ratio; in experiment [10] it was 0.9 ratio. Also, the IC50 in experiment [3] came to 0.067 µg/mL. Besides, the “EC50 (read off the curve)” value in experiment [5] is ~0.08 µg/mL. In experiment [7], the “fold more potent in blocking than the two benchmark mAbs” value is ~100 fold.
